In US20230250134A1 (University of Washington, published 2023):
Like-named read-outs stand apart in the source and are kept apart here.

Experiments:
[1] = target: T1, SARS-COV-2 Spike glycoprotein receptor binding domain (RBD) (SARS-CoV-2, UniProt P0DTC2 319-541)
[2] = target: SARS-COV-2 Spike glycoprotein (SARS-CoV-2, UniProt P0DTC2 14-1208); assay: estimated Kd for Spike (avidity), Table 10
[3] = target: SARS-COV-2 spike protein on authentic virus, strain 2019 n-COV/USA_WA1/2020 (SARS-CoV-2, UniProt P0DTC2 14-1273); assay: cell-based or functional assay
[4] = target: T1, SARS-COV-2 Spike glycoprotein receptor …; assay: estimated Kd for RBD, Table 10

Binder	Kd [1]	Kd [2]	SARS-CoV-2 Neutralization IC50 [3]	Kd [4]
LCB1_v1.1-PRO-LCB3_v1.2 (1PRO3) (designed binder) DKENILQKIYEIMKTLDQLGHAEASMQVSDLIYEFMKQGDERLLEEAERLLEEVERAGSGGSGGSGGSPVPSTPPTPSPSTPPTPSPSPVPSTPPTPSPSTPPTPSPSPVPSTPPTPSPSTPPTPSPSASGNDDELHMQMTDLVYEALHFAKDEEIQKHVFQLFEKATKAYKNKDRQKLEKVVEELKELLERLLS	0.2 nM	0.1 nM		
LCB1-12GS-LCB1 (designed binder) DKEWILQKIYEIMRLLDELGHAEASMRVSDLIYEFMKKGDERLLEEAERLLEEVERGGSGGSGSGGSGDKEWILQKIYEIMRLLDELGHAEASMRVSDLIYEFMKKGDERLLEEAERLLEEVER			0.01 nM	0.2 nM
LCB3_v1.2-PRO-LCB1_v1.1 (3PRO1) (designed binder) NDDELHMQMTDLVYEALHFAKDEEIQKHVFQLFEKATKAYKNKDRQKLEKVVEELKELLERLLSAGSGGSGGSGGSPVPSTPPTPSPSTPPTPSPSPVPSTPPTPSPSTPPTPSPSPVPSTPPTPSPSTPPTPSPSASGDKENILQKIYEIMKTLDQLGHAEASMQVSDLIYEFMKQGDERLLEEAERLLEEVER	0.2 nM	0.1 nM		
LCB6-2 (designed binder) DREQRLVRFLVRLASKFNLSMEQILILFDVLEELLERGVSEEEIRKILEEVAKEL		0.1 nM	0.01 nM	0.2 nM
LCB1-3 (designed binder) DKEWILQKIYEIMRLLDELGHAEASMRVSDLIYEFMKQGDERLLEEAERLLEEVER		0.1 nM	0.01 nM	0.2 nM
LCB1-6GS-LCB1 (designed binder) DKEWILQKIYEIMRLLDELGHAEASMRVSDLIYEFMKKGDERLLEEAERLLEEVERGGSGGSDKEWILQKIYEIMRLLDELGHAEASMRVSDLIYEFMKKGDERLLEEAERLLEEVER			0.01 nM	0.2 nM
LCB6-1 (designed binder) DREQRLVRFLVRLASKFNLSPEQILQLFEVLEELLERGVSEEEIRKQLEEVAKELG		0.1 nM	0.01 nM	0.2 nM
LCB3_v1.2-10GS-LCB1_v1.1 (LCB3-GS10-LCB1) (designed binder) NDDELHMQMTDLVYEALHFAKDEEIQKHVFQLFEKATKAYKNKDRQKLEKVVEELKELLERLLSGGSGGSGGSGDKENILQKIYEIMKTLDQLGHAEASMQVSDLIYEFMKQGDERLLEEAERLLEEVER	0.2 nM	0.1 nM		
